Measurements: patent US11523990B2, “Non-covalent, self-organzing hydrogel matrix for biotechnological applications” (DENOVOMATRIX GMBH, priority 2012, dated 2022)
Square brackets hold non-standard residues; d marks the D form. Ends that are not written are not given here.

Assays:
Type in all cases: physicochemical
[1] = High-throughput centrifuge analysis of mechanical properties of the hydrogels (surface deformation, metal bead penetration); conditions: for Deformation speed: 50 μl 1×PBS, 45° centrifuge; for Penetration speed: 275 μm metal beads
Method: (§1) ATIII is a heparin-binding peptide known from the literature. All peptides are connected to a four-armed, maleimide functionalized 10-kDa-polyethylene glycol (starPEG). The hydrogel formation was tested in a 50 μI mixture, which contains 5 mM 14-kDa-heparin and 5 mM (2.5 mM) peptide-starPEG conjugate in phosphate buffer solution (1×PBS, pH 7.4). The deformation and penetration speed was analyzed through centrifuging the hydrogel in a 45° table centrifuge with 275 μm metal beads added to the surface. The deformation of the surface and the penetration of the metal beads were monitored in dependence on the applied force.
A comparative high-throughput analysis was performed regarding the mechanical properties of the hydrogels. In order to provide a fast high-throughput method for comparing small amounts of hydrogel, a tabletop centrifuge (5424R, Eppendorf, Hamburg, Germany) was used. For this purpose, 50 μl of the hydrogel were formed by mixing the peptide-starPEG-conjugates and 14-kDa-heparin in phosphate buffer (1×PBS, pH 7.4) to a final concentration of 5 mM (once 2.5 mM for KA7-starPEG). The mixture was incubated in 0.2 ml reaction vessels overnight. The deformation of the hydrogel surface was determined in reference to the 45° centrifuge rotor and the penetration of 275 μm metal beads in dependence on the force that has to be produced by the centrifuge. All experiments were repeated three times.
Hereby FIGS. 5A and B show a deformation of the surface of the 50 μl hydrogel in a 0.2 ml reaction tube, more specifically FIG. 5A below the speed required for deforming the surface, and FIG. 5B at the speed required for deforming the surface. FIG. 5C is a schematic representation of the penetration of a small spheres through 50 μl hydrogel in a 0.2 ml reaction tube depending on the force exerted by the 45° centrifuge.
The hydrogels were formed by mixing peptide-starPEG-conjugate and 14-kDa-heparin at 5 mM final concentration in 50 μl phosphate buffer (1×PBS). The analysis was performed by centrifuging the hydrogels in a 45° tabletop centrifuge with 275 μm metal beads on the gel surface. The deformation of the surface and the penetration of the spheres were recorded in dependence on the exerted force.

[2] = Stability of formed hydrogels against different solvents; conditions: 24° C., at least three days
Method: In order to test the strength of the interaction between the peptide motif and the 14-kDa-heparin the formed hydrogels were tested with regard to different solvents. […] For this the peptide-starPEG-conjugates were mixed with 14 kDa-heparin in 50 μl in physiological phosphate buffer solution (1×PBS) to a final concentration of respectively 5 mM. Each solvent, i.e., physiological phosphate buffer solution (1×PBS), Milli-0-water, 1 M hydrochloric acid (HCl) 1 M sodium hydroxide solution (NaOH), saturated sodium chloride solution (NaCl), dimethyl sulfoxide (DMSO), ethanol and cell culture medium with 2% fetal bovine serum (FBS) were respectively added as 200 μl supernatant to the hydrogel. The hydrogel was incubated at a room temperature of 24° C. and the supernatants where exchanged every day for at least three days. All experiments were performed three times. Under none of the tested conditions the KA7-hydrogel could be destroyed. […] 2,2,2-trifuourethanlol (TFE) is known to destroy any type of secondary structures.

[3] = Hydrogel formation in different solvents; conditions: 5 mM conjugate + 5 mM 14-kDa-heparin
Method: Three respective different cases were tested in the hydrogel-formation stability test. […] The hydrogels were formed by mixing the final concentrations of respectively 5 mM peptide-starPEG-conjugate and 5 mM 14-kDa-heparin in 50 μl physiological phosphate buffer solution (1×PBS), Milli-Q-water or cell culture medium with 2% fetal bovine serum (FBS). The stability of the hydrogels was tested with the same solvent in which it was formed in 200 μl supernatant. The hydrogels were incubated at room temperature (24° C.), the supernatants were changed every day for at least three days in a row and the result after at least 3 days analyzed.

[4] = Hydrogel formation of peptide-starPEG conjugates with 14-kDa-heparin; conditions: peptide coupled to 10-kDa starPEG; 5 mM 14-kDa-heparin + 5 mM (2.5 mM) conjugate, 50 μl 1×PBS pH 7.4
Method: Following is the description of the production of the hydrogel networks. Hereby 14-kDa-heparin (25 mM, 2.5 mM) and peptide-starPEG conjugates (6.25 mM, 3.125 mM) were dissolved in physiologic phosphate buffer solution (1×PBS) water or cell culture medium with 2% fetal bovine serum (FBS). These solutions were dissolved in a ratio of 1:4 heparin:peptide-starPEG-conjugate by obtaining […] or 5 mM 14-kDa-heparin and 2.5 mM or 5 mM peptide-starPEG. The ligand/mol ratio was 2:1, 1:1 and 1:5 relative to the mol ratio of 14-kDa-heparin and the peptide-starPEG-conjugate. The mixtures were incubated within a time frame of one hour to overnight at […]. The gelation time spanned from present up to several hours depending on the applied peptide motif.
as §1
In addition to the peptide motif, a tryptophan was labeled with a one letter code W, for UV detection and purification and a cysteine, marked with the one letter code C, bound to the N-terminal end of the peptide with two glycine. By applying the Michael-addition-chemistry, the cysteine was coupled to the maleimide-functionalized 10-kDa-starPEG. […] This is the largest library of peptide-polymer-conjugates, for which each of the oligosaccharide dependent hydrogel formation was analyzed. To analyze the formation of hydrogels, all peptide-starPEG-conjugates were each mixed with 14-kDa-heparin in 50 μI phosphate buffer (1×PBS) to a final concentration of 5 mM. […]

[5] = Rheological gelation measurement (MCR 302, cone-plate); conditions: for Loss Factor at te / Storage modulus G′ at te: 1 mM KA7-RGDSP-starPEG + 1 mM 5DexS or 0.01 mM 500DexS; for Storage moduli G′: 2 mM KA7-RGDSP-starPEG + 2 mM oligosaccharide, after 110 min of gelation
Method: The oligosaccharides were purchased as given in Table 9 and weighed out as required prior each experiment. Oligosaccharides and peptide-starPEG conjugates were dissolved in PBS (oligosaccharides at five-fold and peptide-starPEG at 1.25-fold of the final concentration) and mixed thoroughly. The samples were applied directly onto the measuring system. First, 80% of the final sample volume was provided by the peptide-starPEG solution. Second, the oligosaccharide solution was added to complete to 100% of sample volume.
The Modular Compact Rheometer MCR 302 (Anton Paar) was used with temperature control unit (P-PTD200+H-PTD200, Anton Paar) and cone-plate measuring system (CP20-0.3 and INSET I-PP20/SS, Anton Paar) for assessment of the mechanical properties of the hydrogels of different composition. The gelation measurement was performed at 20° C. with 1% oscillatory shear strain and a frequency of 1 Hz every 5 min for 2 hours. The data was analyzed with Excel (Excel 2013, Microsoft).
The following experiments studied the mechanical properties of hydrogels formed of different components. FIG. 14 summarizes the chosen parameters and measurement values. The storage modulus G′ and loss modulus G″ are calculated from the complex modulus G, which is recorded by the oscillating rheometer. The loss factor tan δ is further calculated by G″ divided by G′.

[6] = 5 mM peptide-starPEG + 5 mM 14-kDa-heparin
[7] = 2.5 mM peptide-starPEG + 5 mM 14-kDa-heparin
[8] = supernatant 1xPBS, 5 mM conjugate + 5 mM heparin gel
[9] = supernatant Cell culture medium with 2% FBS
[10] = supernatant Saturated NaCl solution
[11] = Cell culture medium with 2% FBS
[12] = PBS, 50 μl, result after at least 3 days
[13] = te 120 min, sulfate sodium salt
[14] = 1 mM KA7-RGDSP-starPEG(40 kDa) + 1 mM oligosaccharide, te 120 min
[15] = 2 mM KA7-RGDSP-starPEG(10 kDa) + 2 mM oligosaccharide, te 110 min (5DexS), 120 min (Hep)
[16] = 2 mM KA7-starPEG + 2 mM 5DexS or 0.02 mM 500DexS, te 120 min, sulfate sodium salt
[17] = 2 mM KA7-starPEG(10 kDa) + 2 mM oligosaccharide, te 120 min
[18] = 1.5 mM KA7-starPEG(10 kD) + 3 mM cyclodextrin sulfate, te 120 min

Q: Which Deformation speed [1, 6] does the source give for “CWGGKAFAKLAARLYRKA (Human) [ATIII, reference compound]” here?
A: The Deformation speed was “gel shrank”.

Q: Which results are given for CWGGKAKAKAKAKAKAKA [KA7]?
A: Deformation speed [1, 7]: 43998 +/- 3139 m/s^2; Penetration speed [1, 7]: 72780 +/- 6926 m/s^2; Deformation speed [1, 6]: >148317 m/s^2; Penetration speed [1, 6]: 138919 +/- 16275 m/s^2; Stability of hydrogel against supernatant ([2]; supernatant 1M HCl): Stable; Stability of hydrogel against supernatant ([2]; supernatant 1M NaOH): Stable; Stability of hydrogel against supernatant [2, 8]: Stable; Stability of hydrogel against supernatant [2, 9]: Stable; Stability of hydrogel against supernatant ([2]; supernatant DMSO): Stable; Stability of hydrogel against supernatant ([2]; supernatant Ethanol): Stable; Stability of hydrogel against supernatant [2, 10]: Stable; Stability of hydrogel against supernatant ([2]; supernatant Water): Stable; Hydrogel formation in solvent [3, 11]: formed; Hydrogel formation in solvent [3, 12]: formed; Hydrogel formation in solvent ([3]; water (Milli-Q)): formed

Q: For “CWGGKAKAKAKaKAKAKA (CWGGKAKAKAK[dA]KAKAKA) [KA7-1a]”, which “Hydrogel formation with heparin” value [4] is on record?
A: Its value is “doesn't form a hydrogel with heparin”.

Q: Which “Hydrogel formation with heparin” value [4] does the source give for “CWGGKaKaKaKaKaKaKa (CWGGK[dA]K[dA]K[dA]K[dA]K[dA]K[dA]K[dA]) [KdA7]” here?
A: Its value is “neither formation of a hydrogel”.

Q: Which results are given for CWGGRARARARARA [RA5]?
A: Deformation speed [1, 6]: >687 m/s^2; Penetration speed [1, 6]: >687 m/s^2

Q: Which Deformation speed [1, 6] does the source give for CWGGRARARARARARARA [RA7] here?
A: The Deformation speed was 1069 +/- 579 m/s^2.

Q: And the Penetration speed [1, 6]?
A: Its Penetration speed is 1952 +/- 491 m/s^2.

Q: And the “Stability of hydrogel against supernatant” value (from here on “Stability of hydrogel”) ([2]; supernatant 1M HCl)?
A: Its value is “Stable; hydrogel was”.

Q: What about the “Stability of hydrogel” value ([2]; supernatant 1M NaOH) of the same substance?
A: The value was “Stable”.

Q: What about the “Stability of hydrogel” value [2, 8] of the same substance?
A: Its value is “Stable; the surface”.

Q: And the “Stability of hydrogel” value [2, 9]?
A: Its value is “Stable”.

Q: And the “Stability of hydrogel” value ([2]; supernatant DMSO)?
A: The value was “Stable”.

Q: What about the “Stability of hydrogel” value ([2]; supernatant Ethanol) of the same substance?
A: Its value is “Stable”.

Q: What about the “Stability of hydrogel” value [2, 10] of the same substance?
A: Its value is “Not stable; hydrogel”.

Q: And the “Stability of hydrogel” value ([2]; supernatant Water)?
A: The value was “Stable”.

Q: What about the “Hydrogel formation in solvent” value [3, 11] of the same substance?
A: The value was “formed”.

Q: What about the “Hydrogel formation in solvent” value [3, 12] of the same substance?
A: The value was “formed”.

Q: And the “Hydrogel formation in solvent” value ([3]; water (Milli-Q))?
A: The value was “formed”.

Q: Which “Loss Factor at te” value [5, 13] does the source give for “Dextran sulfate sodium salt [Peptide 5DexS]” here?
A: The value was 0.00681.

Q: And the “Storage modulus G′ at te” value [5, 13]?
A: Its value is 2,295 Pa.

Q: What about the “Loss Factor at time point” value [5, 14] of the same substance?
A: The value was 0.0105.

Q: And the “Storage moduli G′” value [5]?
A: Its value is 14.5 kPa.

Q: And the “Loss Factor at time point” value [5, 15]?
A: The value was 0.00611.

Q: What about the “Storage modulus G′ at time point” value [5, 15] of the same substance?
A: Its value is 14,486 Pa.

Q: What about the “Loss Factor at time point” value [5, 16] of the same substance?
A: Its value is 0.132.

Q: What about the “Storage modulus G′ at time point” value [5, 16] of the same substance?
A: The value was 76,977 Pa.

Q: What about the “Loss Factor at time point” value [5, 17] of the same substance?
A: Its value is 0.132.

Q: And the “Storage modulus G′ at time point” value [5, 17]?
A: Its value is 76,977 Pa.

Q: Which “Loss Factor at te” value [5, 13] does the source give for “Dextran sulfate sodium salt [Peptide 500DexS]” here?
A: Its value is 0.0307.

Q: And the “Storage modulus G′ at te” value [5, 13]?
A: The value was 1,658 Pa.

Q: What about the “Loss Factor at time point” value [5, 16] of the same substance?
A: The value was 0.0887.

Q: And the “Storage modulus G′ at time point” value [5, 16]?
A: The value was 34,694 Pa.

Q: For Heparin [reference compound], which “Loss Factor at time point” value [5, 14] is on record?
A: The value was 0.0486.

Q: And the “Storage modulus G′ at time point” value [5, 14]?
A: Its value is 811 Pa.

Q: What about the “Storage moduli G′” value [5] of the same substance?
A: The value was 12.1 kPa.

Q: What about the “Loss Factor at time point” value [5, 15] of the same substance?
A: The value was 0.0193.

Q: And the “Storage modulus G′ at time point” value [5, 15]?
A: The value was 12,104 Pa.

Q: And the “Loss Factor at time point” value [5, 17]?
A: The value was 0.0131.

Q: And the “Storage modulus G′ at time point” value [5, 17]?
A: Its value is 1,849 Pa.

Q: What about the “Factor by which storage modulus G′ is lower than for 5DexS gels” value ([5]; 2 mM KA7-starPEG, after 120 min of gelation) of the same substance?
A: Its value is 40.

Q: Which “Loss Factor at time point” value [5, 18] does the source give for α-cyclodextrin sulfated sodium salt here?
A: Its value is 0.0641.

Q: What about the “Storage modulus G′ at time point” value [5, 18] of the same substance?
A: Its value is 30,561 Pa.

Q: With β-cyclodextrin sulfated sodium salt as the substance, how does the “Loss Factor at time point” value [5, 18] read?
A: The value was 0.062.

Q: And the “Storage modulus G′ at time point” value [5, 18]?
A: Its value is 33,169 Pa.

Q: For γ-cyclodextrin sulfated sodium salt, which “Loss Factor at time point” value [5, 18] is on record?
A: The value was 0.0355.

Q: And the “Storage modulus G′ at time point” value [5, 18]?
A: Its value is 30,749 Pa.
